According to article PMC3103430, “RecA Proteins from Deinococcus geothermalis and Deinococcus murrayi - Cloning, Purification and Biochemical Characterisation”:

Assays:
DgeRecA = DgeRecA (Deinococcus geothermalis DSM 11302, UniProt Q1IWF2 1-358); assay: EMSA; 8-10 mM Mg2+ (most efficient), ATPgS + ATP, 37 C; 20 mM potassium phosphate pH 7.5, 0-10 mM MgCl2, 110 uM ATPgS + 300 uM ATP (ssDNA, 9 uM RecA) or 180 uM ATPgS + 500 uM ATP (dsDNA, 12 uM RecA), 30 min at 37 C (25-75 C series for ssDNA), 0.8% agarose gel; conditions: protein: recombinant; tags: none (native start and stop codons, NdeI/HindIII in pET-30Ek/LIC); label: 5'-fluorescein
Chain of DgeRecA (Q1IWF2 whole entry): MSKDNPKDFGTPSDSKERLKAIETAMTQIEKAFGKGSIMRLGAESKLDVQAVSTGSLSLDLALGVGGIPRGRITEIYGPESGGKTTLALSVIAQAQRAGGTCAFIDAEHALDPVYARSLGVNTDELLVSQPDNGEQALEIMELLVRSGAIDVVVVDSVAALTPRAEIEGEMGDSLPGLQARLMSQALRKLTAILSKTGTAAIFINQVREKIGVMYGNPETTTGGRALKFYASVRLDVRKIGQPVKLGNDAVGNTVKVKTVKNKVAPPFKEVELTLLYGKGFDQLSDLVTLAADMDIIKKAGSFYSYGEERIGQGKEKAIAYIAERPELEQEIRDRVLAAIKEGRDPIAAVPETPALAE

DmuRecA = DmuRecA (Deinococcus murrayi DSM 11303, UniProt E7CG23 1-359); assay: as above; conditions: protein: recombinant; tags: none (native start and stop codons, NdeI/XhoI in pET-30Ek/LIC); label: 5'-fluorescein

TTTTTTTTTTTTTTTTTTTTTTTTTTTTTTTTTTT (ssDNA) [oligo(dT)35]: binds (DgeRecA); binds (DmuRecA).
